Test results from patent publication US20110250165A1.

Columns and labels:
[1] = target: 2442 CXCR2/CXCR4 chimera; assay: FACS on 293T cells expressing CXCR4 variants
[2] = target: 2444b CXCR2/CXCR4 chimera (human) (UniProt P25025); assay: FACS on 293T cells expressing CXCR4 variants
[3] = target: 4442 CXCR2/CXCR4 chimera; assay: FACS on 293T cells expressing CXCR4 variants
[4] = target: human CXCR4 (wild type) (human) (UniProt P61073); assay: FACS on 293T cells expressing CXCR4 variants
[5] = target: ΔN25-CXCR4 (human) (UniProt P61073); assay: FACS on 293T cells expressing CXCR4 variants
[6] = target: ΔN31-CXCR4 (human) (UniProt P61073); assay: FACS on 293T cells expressing CXCR4 variants
[7] = target: 2242 CXCR2/CXCR4 chimera; assay: flow cytometry, scFv-Fc on transfected 293T cells, FITC anti-human IgG
[8] = target: 2442 CXCR2/CXCR4 chimera; assay: as above
[9] = target: 2444b CXCR2/CXCR4 chimera (human) (UniProt P25025); assay: as above
[10] = target: 4442 CXCR2/CXCR4 chimera; assay: as above
[11] = target: CXCR2 (UniProt P25025); assay: as above
Sequence of CXCR2 (P25025 whole entry): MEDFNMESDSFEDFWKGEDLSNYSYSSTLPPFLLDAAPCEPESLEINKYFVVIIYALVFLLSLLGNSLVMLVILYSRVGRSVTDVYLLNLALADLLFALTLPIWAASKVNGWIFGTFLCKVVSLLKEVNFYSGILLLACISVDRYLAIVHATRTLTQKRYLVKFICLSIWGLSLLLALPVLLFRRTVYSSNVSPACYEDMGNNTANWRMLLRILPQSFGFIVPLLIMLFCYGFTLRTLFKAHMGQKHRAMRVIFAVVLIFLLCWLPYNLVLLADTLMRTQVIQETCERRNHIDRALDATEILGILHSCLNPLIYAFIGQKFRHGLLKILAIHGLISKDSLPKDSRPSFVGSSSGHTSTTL

[12] = target: human CXCR4 (wild type) (human) (UniProt P61073); assay: as above
[13] = target: mouse CXCR4 (mouse) (UniProt P70658); assay: as above
Sequence of mouse CXCR4 (mouse) (P70658 whole entry): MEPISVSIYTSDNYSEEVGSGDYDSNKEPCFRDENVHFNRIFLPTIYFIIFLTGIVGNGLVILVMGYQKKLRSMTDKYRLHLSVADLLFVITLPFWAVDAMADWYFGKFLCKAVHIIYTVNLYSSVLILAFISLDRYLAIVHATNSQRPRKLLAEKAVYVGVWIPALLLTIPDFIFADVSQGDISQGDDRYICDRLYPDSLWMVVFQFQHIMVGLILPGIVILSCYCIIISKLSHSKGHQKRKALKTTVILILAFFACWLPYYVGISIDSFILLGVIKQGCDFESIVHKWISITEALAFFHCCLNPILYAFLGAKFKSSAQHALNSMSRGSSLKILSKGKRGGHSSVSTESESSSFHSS

[14] = target: rhesus macaque monkey CXCR4 (rhesus macaque) (UniProt P79394); assay: as above
Sequence of rhesus macaque monkey CXCR4 (rhesus macaque) (P79394 whole entry): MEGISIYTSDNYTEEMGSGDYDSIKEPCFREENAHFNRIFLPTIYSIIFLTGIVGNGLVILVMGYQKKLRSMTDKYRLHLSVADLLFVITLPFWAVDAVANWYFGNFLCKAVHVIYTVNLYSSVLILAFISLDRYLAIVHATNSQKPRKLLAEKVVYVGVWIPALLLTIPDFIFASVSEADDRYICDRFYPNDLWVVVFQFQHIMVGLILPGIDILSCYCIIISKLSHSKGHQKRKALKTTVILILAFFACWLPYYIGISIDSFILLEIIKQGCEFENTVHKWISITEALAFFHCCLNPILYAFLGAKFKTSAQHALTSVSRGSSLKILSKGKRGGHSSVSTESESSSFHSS

[15] = target: Δ-X4; assay: as above
[16] = target: rhesus macaque monkey CXCR4 (rhesus macaque) (UniProt P79394); assay: flow cytometry, scFv-Fc on transfected 293T cells

Sequence of 2444b CXCR2/CXCR4 chimera (human) (P25025 other isoform, or with tags, fused parts or gaps mutant limits assumed): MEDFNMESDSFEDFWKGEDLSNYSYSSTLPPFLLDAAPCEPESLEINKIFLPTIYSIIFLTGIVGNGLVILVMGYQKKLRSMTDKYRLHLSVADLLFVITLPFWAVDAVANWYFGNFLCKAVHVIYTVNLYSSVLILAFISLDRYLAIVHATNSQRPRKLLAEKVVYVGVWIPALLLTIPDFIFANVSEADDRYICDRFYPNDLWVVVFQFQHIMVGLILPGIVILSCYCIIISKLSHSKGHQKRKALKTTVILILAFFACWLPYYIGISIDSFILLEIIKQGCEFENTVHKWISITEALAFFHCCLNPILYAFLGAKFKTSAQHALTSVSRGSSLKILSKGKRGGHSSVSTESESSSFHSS
Sequence of human CXCR4 (wild type) (human) (P61073 whole entry): as the sequence (P79394 whole entry) above, with I24M, H35N, R38K, K146R, S176N, D214V counted along it

| Binder | binding (+%) [1] | binding (+%) [2] | binding (+%) [3] | binding (+%) [4] | binding (+%) [5] | binding (+%) [6] | reactivity (MFI of chimeric receptor/MFI of wild type CXCR4 x 100%) [7] | reactivity (MFI of chimeric receptor/MFI of wild type CXCR4 x 100%) [8] | reactivity (MFI of chimeric receptor/MFI of wild type CXCR4 x 100%) [9] | reactivity (MFI of chimeric receptor/MFI of wild type CXCR4 x 100%) [10] | reactivity (MFI of chimeric receptor/MFI of wild type CXCR4 x 100%) [11] | reactivity (MFI of chimeric receptor/MFI of wild type CXCR4 x 100%) [12] | reactivity (MFI of chimeric receptor/MFI of wild type CXCR4 x 100%) [13] | reactivity (MFI of chimeric receptor/MFI of wild type CXCR4 x 100%) [14] | reactivity (MFI of chimeric receptor/MFI of wild type CXCR4 x 100%) [15] | decrease of binding compared to human CXCR4 [16] |
| --- | --- | --- | --- | --- | --- | --- | --- | --- | --- | --- | --- | --- | --- | --- | --- | --- |
| 2N-Fc (Fc fusion, part only; not given: linker and human IgG1 hinge-Fc, not shown: another chain or arm of the molecule; a dimerising Fc or GST; small tags and cut ends) VH: EVQLVESGGGVVQPGRSLRLSCAASGFTFSSYGMHWVRQAPGKGLEWVAVISYDGSNKYYADSVKGRFTISRDNSKNTLYLQVSSLRAEDTAVYYCVRDLVAAAGTAFDIWGQGTTVTVSS VL: QPVLTQPRSVSGSPGQSVTISCTGTISDVGGHNFVSWYQQNPGKAPKLIIFEVTKRPAGVPDRFSGSKSGNTASLTVSGLQAEDEGEYYCSSYGGSNDVIFGGGTKLSVL | -1.2% | -6.2% | 89.1% | 100% | -6.3% | -7% | 1.2% | 4.5% | 8.3% | 61% | 4.7% | 100% | 3.6% | 98.3% | -1.6% | – |
| 20-Fc (Fc fusion, part only; not given: linker and human IgG1 hinge-Fc, not shown: another chain or arm of the molecule; a dimerising Fc or GST; small tags and cut ends) VH: EVQLVQSGGGLVQPGGSLRLSCAASGFTFSSYAMSWVRQAPGKGLEWVANIKQDGSEKYYVDSVKGRFTISRDNAKNSLYLQMNSLRAEDTAVYYCARDQVSGITIFGGKWRSPDVWGQGTTVTVSS VL: SSELTQDPAVSVALGQTVRITCQGDSLRSYYASWYQQKPGQAPVLVIYGKNNRPSGIPDRFSGSKSHNTAYLTITGAQAEDEADYFCNSRSGSQRVFGGGTKLTVL | – | – | – | – | – | – | 11.6% | 7.6% | 12.9% | 27.9% | 4.1% | 100% | – | 77.5% | 9.6% | – |
| 6R-Fc (Fc fusion, part only; not given: VH-VL linker, hinge and IgG1 Fc, not shown: another chain or arm of the molecule; a dimerising Fc or GST; small tags and cut ends) VH: QVQLQQSGPGLVKPSQTLSLTCAVSGDSVSSNFVAWNWIRQSPSRGLEWLGRTYYRSRWYNDYAVSVQSRIRVTPDTSKNQFSLHLDSVTPEDTAVYYCARGQHSGFDFWGQGTLVTVSS VL: QSVLTQPPSVSKGLRQTATLTCTGNSNNVGNQGAAWLQQHQGHPPKLLSYRNNNRPSGISERFSASRSGNTASLTITGLQPEDEADYYCSAWDNRLKTYVFGTGGKVTVL | -3.4% | 2.2% | -0.4% | 100% | 60% | 12.8% | 1% | 3.7% | 4.7% | 1.4% | – | 100% | – | 41.9% | 16.6% | 60% |

Results, then the binder that gave them:

| binding (+%) [1] | binding (+%) [2] | binding (+%) [3] | binding (+%) [4] | binding (+%) [5] | binding (+%) [6] | reactivity (MFI of chimeric receptor/MFI of wild type CXCR4 x 100%) [7] | reactivity (MFI of chimeric receptor/MFI of wild type CXCR4 x 100%) [8] | reactivity (MFI of chimeric receptor/MFI of wild type CXCR4 x 100%) [9] | reactivity (MFI of chimeric receptor/MFI of wild type CXCR4 x 100%) [10] | reactivity (MFI of chimeric receptor/MFI of wild type CXCR4 x 100%) [11] | reactivity (MFI of chimeric receptor/MFI of wild type CXCR4 x 100%) [12] | reactivity (MFI of chimeric receptor/MFI of wild type CXCR4 x 100%) [13] | reactivity (MFI of chimeric receptor/MFI of wild type CXCR4 x 100%) [14] | reactivity (MFI of chimeric receptor/MFI of wild type CXCR4 x 100%) [15] | decrease of binding compared to human CXCR4 [16] | Binder |
| --- | --- | --- | --- | --- | --- | --- | --- | --- | --- | --- | --- | --- | --- | --- | --- | --- |
| – | – | – | – | – | – | 0.3% | 0.7% | 0.7% | 15.5% | -0.52% | 100% | 2.1% | 103% | 3.1% | – | 33-Fc (Fc fusion, part only; not given: linker and human IgG1 hinge-Fc, not shown: another chain or arm of the molecule; a dimerising Fc or GST; small tags and cut ends) VH: QVTLKESGGGVVQPGRSLRLSCAASGFTFTNYGLHWVRQAPGKGLEWVAVISHDGTKKYYADSVKGRFTISRDSSENTLYLQMNSLRPEDSALYYCARDGGYCSGGRCYSYGMDVWGQGTTVTVSS VL: QSVLTQPPSASGTPGQRVTISCSGSRSNIGSNTVNWYQQLPGTAPKLLIYTNNQRPSGVPDRFSGSKSGTSASLAITGLQAEDEADYYCLSFDSSLTSYVFGTGTKVTVL |
| – | – | – | – | 13% | 9% | – | – | – | – | – | – | – | – | – | – | 33-IgG1 (antibody, V domains shown) VH: QVTLKESGGGVVQPGRSLRLSCAASGFTFTNYGLHWVRQAPGKGLEWVAVISHDGTKKYYADSVKGRFTISRDSSENTLYLQMNSLRPEDSALYYCARDGGYCSGGRCYSYGMDVWGQGTTVTVSS VL: QSVLTQPPSASGTPGQRVTISCSGSRSNIGSNTVNWYQQLPGTAPKLLIYTNNQRPSGVPDRFSGSKSGTSASLAITGLQAEDEADYYCLSFDSSLTSYVFGTGTKVTVLG |
